# Measurements reported in the supplement of paper PMC9112550, “Optimization of the antimicrobial peptide Bac7 by deep mutational scanning” (BMC Biology, 2022).
# System: Escherichia coli TOP10
# Test: shrunken log2 fold change of peptide-encoding DNA abundance (4.5 h post-induction vs induction); higher = less antimicrobial activity (less host growth inhibition)
# Conditions: time post-induction: 4.5 h; library: site-saturation at positions 5, 18, 19, 20
# 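Also: peptides expressed intracellularly from a pBAD plasmid library in pooled LB shake-flask culture, induced with 0.3% L-arabinose, DNA abundance read by NGS, three biological replicates, DESeq2 with apeglm shrinkage.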
row,Sequence,shrunken log2 fold change
1,RRIRRRPPRLPRPRPRPHGWPRP,0.784
2,RRIRWRPPRLPRPRPRPIPRPRP,0.0469
3,RRIRPRPPRLPRPRPRPFIAPRP,-0.342
4,RRIRVRPPRLPRPRPRPTPSPRP,0.253
5,RRIRPRPPRLPRPRPRPYHTPRP,-1.66
6,RRIRLRPPRLPRPRPRPWIIPRP,-0.631
7,RRIRDRPPRLPRPRPRPKSLPRP,0.196
8,RRIRGRPPRLPRPRPRPDFDPRP,0.612
9,RRIRVRPPRLPRPRPRPISMPRP,0.0223
10,RRIRIRPPRLPRPRPRPMWLPRP,-0.233
11,RRIRMRPPRLPRPRPRPLIAPRP,0.34
12,RRIRHRPPRLPRPRPRPEQDPRP,0.057
13,RRIRDRPPRLPRPRPRPHQWPRP,0.031
14,RRIRERPPRLPRPRPRPNGFPRP,0.0354
15,RRIRSRPPRLPRPRPRPKCIPRP,-0.256
16,RRIRMRPPRLPRPRPRPRWYPRP,0.0191
17,RRIRKRPPRLPRPRPRPKHSPRP,-0.147
18,RRIRERPPRLPRPRPRPKQCPRP,-0.354
19,RRIRDRPPRLPRPRPRPGNEPRP,-0.159
20,RRIRKRPPRLPRPRPRPYMSPRP,0.0659

row,Sequence,shrunken log2 fold change
1,RRIRVRPPRLPRPRPRPQASPRP,0.322
2,RRIRDRPPRLPRPRPRPTNDPRP,0.0152
3,RRIRRRPPRLPRPRPRPDNKPRP,-0.233
4,RRIRLRPPRLPRPRPRPPKFPRP,0.028
5,RRIRMRPPRLPRPRPRPEKTPRP,-0.0246
6,RRIRNRPPRLPRPRPRPTIMPRP,-0.0883
7,RRIRPRPPRLPRPRPRPEIYPRP,0.0694
8,RRIRARPPRLPRPRPRPWCWPRP,0.583
9,RRIRNRPPRLPRPRPRPVVEPRP,-0.00885
10,RRIRSRPPRLPRPRPRPFPYPRP,-0.115
11,RRIRWRPPRLPRPRPRPGPVPRP,0.423
12,RRIRGRPPRLPRPRPRPRQKPRP,1.43
13,RRIRQRPPRLPRPRPRPLIKPRP,-0.249
14,RRIRPRPPRLPRPRPRPQHGPRP,-0.189
15,RRIRYRPPRLPRPRPRPQEQPRP,-0.0134
16,RRIRHRPPRLPRPRPRPLAYPRP,-0.351
17,RRIRIRPPRLPRPRPRPSERPRP,-0.073
18,RRIRMRPPRLPRPRPRPCSSPRP,-0.0756
19,RRIRIRPPRLPRPRPRPYPVPRP,-0.18
20,RRIRMRPPRLPRPRPRPPNIPRP,-0.113

row,Sequence,shrunken log2 fold change
1,RRIRIRPPRLPRPRPRPNIIPRP,-0.719
2,RRIRLRPPRLPRPRPRPTPTPRP,0.786
3,RRIRQRPPRLPRPRPRPHIVPRP,-0.225
4,RRIRWRPPRLPRPRPRPHKPPRP,-0.119
5,RRIRSRPPRLPRPRPRPYAEPRP,-0.235
6,RRIRKRPPRLPRPRPRPPKIPRP,0.405
7,RRIRARPPRLPRPRPRPEFKPRP,0.0365
8,RRIRNRPPRLPRPRPRPGAHPRP,0.0408
9,RRIRSRPPRLPRPRPRPDGQPRP,-0.00208
10,RRIRIRPPRLPRPRPRPTLDPRP,1.36
11,RRIRNRPPRLPRPRPRPTTVPRP,-0.12
12,RRIRNRPPRLPRPRPRPGGTPRP,0.154
13,RRIRFRPPRLPRPRPRPLKVPRP,-0.112
14,RRIRSRPPRLPRPRPRPQPSPRP,0.296
15,RRIRIRPPRLPRPRPRPFHNPRP,-0.213
16,RRIRFRPPRLPRPRPRPGTEPRP,0.0589
17,RRIRSRPPRLPRPRPRPDARPRP,0.1
18,RRIRWRPPRLPRPRPRPNASPRP,0.267
19,RRIRCRPPRLPRPRPRPMNMPRP,-0.445
20,RRIRQRPPRLPRPRPRPGWAPRP,0.113
